Data taken from PMC5507356, “Characterization of the molecular chaperone ClpB from the pathogenic spirochaete Leptospira interrogans” (PLoS ONE, 2017).

Target: the molecule itself
Test: AUC; sedimentation velocity, 1.2 mg/ml ClpBLi with 2 mM ATPγS, 20°C, 50 mM Tris-HCl pH 7.5, 200 mM KCl, 20 mM MgCl2, 1 mM EDTA, 2 mM β-mercaptoethanol, 5% glycerol

B1: ClpB from Leptospira interrogans (ClpBLi), recombinant (natural protein)
chain: not shown
notes: Chaperone protein ClpB, Leptospira interrogans; intact protein runs at ~100 kDa; Monomer without nucleotide, hexamer with ATPγS; source: E. coli BL21(DE3), purified (Co-NTA IMAC, Superdex 200 gel filtration); not shown: His6, N-terminal, cleaved
stoichiometry N: 6
